The target in the experiment is T1, PG I蛋白(fitzgerald，30R-AP038) (UniProt P0DJD8 16-388).
T1 construct: Bought antigen; Pepsinogen I is a group of isozymogens (human genes PGA3, PGA4, PGA5); also called 胃蛋白酶原I; HPG I
Description: BLI, antibody captured on AMC sensor, PG I protein in a dilution series in PBST. In general terms: Biolayer interferometry detects binding as a change in optical thickness at a sensor tip.

T1 sequence (P0DJD8 16-388): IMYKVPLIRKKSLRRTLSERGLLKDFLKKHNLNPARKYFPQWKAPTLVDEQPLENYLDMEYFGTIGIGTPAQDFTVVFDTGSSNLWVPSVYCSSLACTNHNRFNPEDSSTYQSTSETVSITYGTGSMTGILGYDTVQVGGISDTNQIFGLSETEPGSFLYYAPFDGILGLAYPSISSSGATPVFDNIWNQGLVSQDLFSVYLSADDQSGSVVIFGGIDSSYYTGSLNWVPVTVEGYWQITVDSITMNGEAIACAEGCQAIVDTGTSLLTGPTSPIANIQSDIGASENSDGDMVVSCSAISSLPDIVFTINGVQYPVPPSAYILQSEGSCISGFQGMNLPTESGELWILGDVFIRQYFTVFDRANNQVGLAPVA

What is called Kd is the equilibrium constant for the complex coming apart. A lower Kd goes with a tighter complex. What is called koff is the first-order rate constant of dissociation. Read a high koff as fast dissociation. As usually defined, the kon is the second-order rate constant of association. Low values mean slow association, high ones fast association. 对照抗体 (antibody): the Kd stood at 0.271 nM, the dissociation rate constant (koff) worked out at 0.000529 s⁻¹ and the kon is 1.95e+06 M⁻¹ s⁻¹.

B1: Anti-HPG I 13A5单克隆抗体 (antibody, V domains shown)
VH: QVQLQQSGPELVRPGVSVKISCKGSGYTFTDHPMHWVKQSHAKSLEWIGVISTFSGHRNYNQKFKGKATMTVDKSSTTAYMELDRLTSEDSAIYYCARGDKSIYYGSYLSWGQGTLITVSA
VL: QIVLTQSPAIMSASPGEKVTMTCSASSSVSYMYWYQQKSGTSPKRWIYDTSKLTSGVPARFSGSGSGTSYSLTISSMETEDAATYFCQQWSSSPLTFGAGTKLELK
For B1, the dissociation constant (Kd) stood at 0.0275 nM, the koff came out at 0.000536 s⁻¹ and the kon is 1.95e+07 M⁻¹ s⁻¹.
